Legend:
[1] = biological target: JR-FL gp120 ΔV1/ΔV2 (HIV-1 JR-FL); test: ELISA, antigen-coated wells, mAb titrated; EC50 by nonlinear regression
[2] = biological target: HIV-1 envelope glycoprotein (Env) of isolate MGRM-AE-002, subtype AE (HIV-1); test: cell-based or functional assay
[3] = biological target: HIV-1 92TH021 envelope protein (Env) on pseudovirus (HIV-1); test: cell-based or functional assay
[4] = biological target: HIV-1 envelope glycoprotein (Env) of isolate MGRM-Chronic-B-018, on pseudovirus (HIV-1); test: cell-based or functional assay
[5] = biological target: HIV-1 envelope glycoprotein (Env) of isolate NL43, on pseudovirus (HIV-1); test: cell-based or functional assay
[6] = biological target: HIV-1 envelope glycoprotein (Env) of isolate MGRM-Chronic-B-001, on pseudovirus (HIV-1); test: cell-based or functional assay
[7] = biological target: HIV-1 Env of isolate MGRM-AG-008 (pseudovirus) (HIV-1); test: cell-based or functional assay
[8] = biological target: HIV-1 Env of isolate MGRM-F1-021 (pseudovirus) (HIV-1); test: cell-based or functional assay
[9] = biological target: HIV-1 envelope glycoprotein (Env) of isolate 93WR029, subtype A (HIV-1); test: cell-based or functional assay
[10] = biological target: aMLV envelope; test: cell-based or functional assay
[11] = biological target: HIV-1 Env of isolate APV_6, clade B (HIV-1); test: cell-based or functional assay
[12] = biological target: HIV-1 envelope glycoprotein (Env) of isolate MGRM-C-004 (HIV-1); test: cell-based or functional assay
[13] = biological target: HIV-1 envelope glycoprotein (Env) of isolate LAVI_C3 (HIV-1); test: cell-based or functional assay
[14] = biological target: HIV-1 Env of isolate 92RW026 (clade A pseudovirus) (HIV-1); test: cell-based or functional assay
[15] = biological target: HIV-1 Env of isolate 92RW008 (clade A pseudovirus) (HIV-1); test: cell-based or functional assay
[16] = biological target: HIV-1 isolate 94UG114 envelope glycoprotein (Env), clade D, on pseudovirus (HIV-1); test: cell-based or functional assay
[17] = biological target: HIV-1 Env of isolate MGRM-D-012 (clade D pseudovirus) (HIV-1); test: cell-based or functional assay
[18] = biological target: HIV-1 Env of isolate JRCSF (Clade B) (HIV-1) (UniProt P20871); test: cell-based or functional assay
[19] = biological target: HIV-1 Env of isolate MGRM-A-007 (clade A pseudovirus) (HIV-1); test: cell-based or functional assay
[20] = biological target: HIV-1 Env of pseudovirus MGRM-F1-016 (clade F) (HIV-1); test: cell-based or functional assay
[21] = biological target: aMLV envelope on pseudovirus (negative control); test: cell-based or functional assay
[22] = biological target: HIV-1 94UG103 envelope (Env) on pseudovirus (HIV-1); test: cell-based or functional assay
[23] = biological target: HIV-1 MGRM-G-001 Env (pseudovirus) (HIV-1); test: cell-based or functional assay
[24] = biological target: HIV-1 Env of isolate MGRM-D-001 (clade D pseudovirus) (HIV-1); test: cell-based or functional assay
[25] = biological target: HIV-1 CMU02 envelope (Env) on pseudovirus (HIV-1); test: cell-based or functional assay
[26] = biological target: HIV-1 Env of isolate MGRM-G-028 (subtype G) (HIV-1); test: cell-based or functional assay
[27] = biological target: HIV-1 Env of isolate VLGCA1 (pseudovirus) (HIV-1); test: cell-based or functional assay
[28] = biological target: HIV-1 Env of isolate MGRM-G-006 (subtype G) (HIV-1); test: cell-based or functional assay

1443_C16 (PG16) (TCN-116) (antibody), sequence (VH): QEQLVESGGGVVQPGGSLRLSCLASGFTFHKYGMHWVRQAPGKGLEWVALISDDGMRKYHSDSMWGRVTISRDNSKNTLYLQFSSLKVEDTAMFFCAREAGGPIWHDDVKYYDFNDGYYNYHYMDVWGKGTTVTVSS
1443_C16 (PG16) (TCN-116) (antibody), sequence (VL): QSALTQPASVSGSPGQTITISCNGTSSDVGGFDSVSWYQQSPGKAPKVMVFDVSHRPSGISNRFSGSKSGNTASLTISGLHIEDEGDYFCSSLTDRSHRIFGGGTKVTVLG

Row | Substance | EC50 [1] | IC50, pseudovirus neutralization [2] | IC50 (ug/mL), pseudovirus neutralization [3] | IC50, pseudovirus neutralization [4] | IC50, pseudovirus neutralization [5] | IC50, pseudovirus neutralization [6] | IC50 (µg/mL), pseudovirus neutralization [7] | IC50 (µg/mL), pseudovirus neutralization [8] | IC50, pseudovirus neutralization [9] | IC50 (µg/ml), pseudovirus neutralization [11] | IC50 (µg/ml), pseudovirus neutralization [12] | IC50 (µg/ml), pseudovirus neutralization [13] | IC50 (µg/ml), pseudovirus neutralization [14] | IC50 (µg/ml), pseudovirus neutralization [15] | IC50, pseudovirus neutralization [17] | IC90 (neutralization of pseudovirus) [18] | IC50 (µg/ml), pseudovirus neutralization [19] | IC50 [20] | neutralization IC50 [22] | IC50 (µg/ml), pseudovirus neutralization [23] | also measured
1 | 5123_A06 (PGT-125) (antibody) | 0.6 µg/mL | > 50 µg/mL | 0.0066 µg/mL | > 50 µg/mL | > 50 µg/mL | > 50 µg/mL | > 50 µg/mL | > 50 µg/mL | > 50 µg/mL | – | – | – | – | – | – | – | – | – | – | – | IC50, pseudovirus neutralization [10]: > 10 µg/mL
2 | 4E10 (antibody) | – | – | – | – | – | – | – | – | – | 1.1 µg/mL | 24.2 µg/mL | 2.85 µg/mL | 12.9 µg/mL | 14.5 µg/mL | 1.13 µg/mL | 44.1 µg/mL | 1.82 µg/mL | 7.61 µg/mL | 9.7 µg/mL | 2.04 µg/mL | IC50 (µg/ml), pseudovirus neutralization [16]: 9.72 µg/mL; neutralization IC50 [21]: > 50 µg/mL; IC50, pseudovirus neutralization [24]: 1.84 µg/mL; neutralization IC50 [25]: 0.59 µg/mL
3 | 2G12 (antibody) | – | – | – | – | – | – | – | – | – | 1.9 µg/mL | > 50 µg/mL | > 50 µg/mL | 17.2 µg/mL | 22.5 µg/mL | > 50 µg/mL | 5.38 µg/mL | > 50 µg/mL | > 50 µg/mL | > 50 µg/mL | > 50 µg/mL | IC50 (µg/ml), pseudovirus neutralization [16]: 13.9 µg/mL; neutralization IC50 [21]: > 50 µg/mL; IC50, pseudovirus neutralization [24]: > 50 µg/mL; neutralization IC50 [25]: > 50 µg/mL
4 | 1443_C16 (PG16) (TCN-116) (antibody) | – | – | – | – | – | – | – | – | – | 0.29 µg/mL | 5.09 µg/mL | 9.55 µg/mL | 0.03 µg/mL | 0.002 µg/mL | 0.35 µg/mL | 0.013 µg/mL | 5.91 µg/mL | 1.12 µg/mL | 0.008 µg/mL | 0.15 µg/mL | IC50 (µg/ml), pseudovirus neutralization [16]: > 50 µg/mL; neutralization IC50 [21]: > 50 µg/mL; IC50, pseudovirus neutralization [24]: > 50 µg/mL; neutralization IC50 [25]: > 50 µg/mL
5 | 4858_P08 (PGT-123) (antibody) | 0.3 µg/mL | > 50 µg/mL | > 10 µg/mL | > 50 µg/mL | > 50 µg/mL | 0.15 µg/mL | 19.2 µg/mL | 0.307 µg/mL | > 50 µg/mL | – | – | – | – | – | – | – | – | – | – | – | IC50, pseudovirus neutralization [10]: > 10 µg/mL
6 | PGV04 (antibody) | – | – | – | – | – | – | 2.48 µg/mL | – | – | – | – | – | – | – | – | – | – | – | – | – | IC50 (µg/mL), pseudovirus neutralization [26]: 0.352 µg/mL; IC50 (µg/mL), pseudovirus neutralization [27]: 0.024 µg/mL; IC50 (µg/mL), pseudovirus neutralization [28]: 0.083 µg/mL
7 | 5145_B14 (PGT-127) (antibody) | 0.7 µg/mL | > 50 µg/mL | – | 1.9 µg/mL | > 50 µg/mL | > 50 µg/mL | > 50 µg/mL | > 50 µg/mL | > 50 µg/mL | – | – | – | – | – | – | – | – | – | – | – | –
8 | 1496_C09 (PG9) (TCN-109) (antibody) | – | – | 0.103 µg/mL | – | – | – | – | – | – | 0.12 µg/mL | 1.18 µg/mL | 1.45 µg/mL | 0.27 µg/mL | 0.01 µg/mL | 9.31 µg/mL | < 0.0025 µg/mL | 0.37 µg/mL | 0.58 µg/mL | 0.173 µg/mL | 0.16 µg/mL | IC50 (µg/mL), pseudovirus neutralization [26]: 0.891 µg/mL; IC50 (µg/mL), pseudovirus neutralization [27]: 0.069 µg/mL; IC50 (µg/mL), pseudovirus neutralization [28]: 1.98 µg/mL; Neutralization IC80 [18]: 0.0181 µg/mL; Neutralization IC90 [18]: 0.0391 µg/mL; Neutralization IC95 [18]: 0.0798 µg/mL; neutralization IC50 [18]: 0.0048 µg/mL

From patent US20240132578A1
